Measurements taken from patent US20100040604A1.
pKd: −log10 of the molar value.

Columns and labels:
[1] = biological target: recombinant human TNFα (rhTNFα) (human) (UniProt P01375); assay: SPR (BIAcore), biotinylated rhTNFα on streptavidin chip; [Ab] 6 nM
[2] = biological target: recombinant human TNFα (rhTNFα) (human) (UniProt P01375); assay: SPR (BIAcore), biotinylated rhTNFα on streptavidin chip; [Ab] 100 nM
[3] = biological target: recombinant human TNFα (rhTNFα) (human) (UniProt P01375); assay: SPR (BIAcore), summary table
[4] = biological target: recombinant human TNFα (rhTNFα) (human) (UniProt P01375); assay: SPR (BIAcore), biotinylated rhTNFα on streptavidin chip; [Ab] 13 nM
[5] = biological target: recombinant human TNFα (rhTNFα) (human) (UniProt P01375); assay: SPR (BIAcore), biotinylated rhTNFα on streptavidin chip; [Ab] 3 nM
[6] = biological target: recombinant human TNFα (rhTNFα) (human) (UniProt P01375); assay: SPR (BIAcore), biotinylated rhTNFα on streptavidin chip; [Ab] 200 nM
[7] = biological target: recombinant human TNFα (rhTNFα) (human) (UniProt P01375); assay: SPR (BIAcore), biotinylated rhTNFα on streptavidin chip; [Ab] 50 nM
[8] = biological target: recombinant human TNFα (rhTNFα) (human) (UniProt P01375); assay: SPR (BIAcore), biotinylated rhTNFα on streptavidin chip; [Ab] 25 nM
[9] = biological target: recombinant human TNFα (rhTNFα) (human) (UniProt P01375); assay: cell-based or functional assay
[10] = biological target: recombinant human TNFα (rhTNFα) (human) (UniProt P01375); assay: SPR (BIAcore), biotinylated rhTNFα on streptavidin chip; [Ab] 400 nM
[11] = biological target: recombinant human TNFα (rhTNFα) (human) (UniProt P01375); assay: SPR (BIAcore), biotinylated rhTNFα on streptavidin chip; average over the concentrations

Chain of recombinant human TNFα (rhTNFα) (human) (P01375 77-233 limits assumed): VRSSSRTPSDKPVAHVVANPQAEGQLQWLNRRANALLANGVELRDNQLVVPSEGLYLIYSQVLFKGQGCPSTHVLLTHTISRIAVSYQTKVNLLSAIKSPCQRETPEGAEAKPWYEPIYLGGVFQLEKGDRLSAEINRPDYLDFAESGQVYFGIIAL

- Ab, bound, RUs [1]: 433 RU
- koff [1]: 7.37e-05 s⁻¹
- rhTNFα/Ab [1]: 0.47
- Ab, bound, RUs [2]: 1140 RU
- koff [2]: 3.54e-05 s⁻¹
- rhTNFα/Ab [2]: 1.39
- pKd [3]: 9.34
- Stoichiometry [3]: 1.4
- koff [3]: 8.7e-05 s⁻¹
- kon [3]: 190000 M⁻¹ s⁻¹
- Ab, bound, RUs [4]: 708 RU
- koff [4]: 3.66e-05 s⁻¹
- rhTNFα/Ab [4]: 0.78
- Ab, bound, RUs [5]: 231 RU
- koff [5]: 6.95e-05 s⁻¹
- rhTNFα/Ab [5]: 0.26
- Ab, bound, RUs [6]: 1080 RU
- koff [6]: 4.54e-05 s⁻¹
- rhTNFα/Ab [6]: 1.38
- Ab, bound, RUs [7]: 1110 RU
- koff [7]: 3.67e-05 s⁻¹
- rhTNFα/Ab [7]: 1.32
- Ab, bound, RUs [8]: 957 RU
- koff [8]: 4.41e-05 s⁻¹
- rhTNFα/Ab [8]: 1.09
- Ab, bound, RUs [10]: 881 RU
- koff [10]: 5.38e-05 s⁻¹
- rhTNFα/Ab [10]: 1.2
- koff [11]: 4.94e-05 s⁻¹
Substance: MAK 195 F(ab′)2 fragment (murine anti-hTNFα mAb)
- IC50, neutralization of TNFα-induced L929 cytotoxicity [9]: 62 pM
